Experimental data taken from PMC11195947.

Tested on: His6-CusR (Pseudomonas paraeruginosa IHMA87)
Experiment: EMSA
Conditions: apparent equilibrium constant (Keq); unphosphorylated CusR; 20 mM HEPES pH 7.9, 80 mM KCl, 20 mM MgCl2, 0.8 mM EDTA, 7.5% glycerol, 0.1 mM DTT, 25 C; 0.5 nM probe; native 5% TBE gel at 4 C

PcusR probe (pcoA2-cusR intergenic 60-mer)
Kd: 25 nM
